The series can be described thus: soluble on expression in E. coli; label from the status in PepcDB or PDB records.
“MNAHVTSREGVNEFDDGIVIVGGGLAAARTAEQLRRAGYSGRLTIVSDEVHLPYDRPPLSKEVLRSEVDDVALKPREFYDEKDIALRLGSAAVSLDTGEQTVTLADGTVLGYDELVIATGLVPRRIPSLPDLDGIRVLRSFDESMALRKHASAARHAVVVGAGFIGCEVAASLRGLGVDVVLVEPQPAPLASVLGEQIGQLVTRLHRDEGVDVRTGVTVAEVRGKGHVDAVVLTDGTELPADLVVVGIGSTPATEWLEGSGVEVDNGVICDKAGRTSAPNVWALGDVASWRDPMGHQARVEHWSNVADQARVVVPAMLGTDVPTGVVVPYFWSDQYDVKIQCLGEPHATDVVHLVEDDGRKFLAYYERDGVLVGVVGGGMAGKVMKVRGKIAAGAPIAEVLDQTQA”: the “soluble on expression in E. coli” value is given as “soluble”. Regarding “MGHHHHHAYTLSKSGKEKEEVDEILEEEAEVDELKSPESVVQLLHIDPIEFEFGYGLIPLADANQGGDLLDRIVMIRRQLALELGLVIPVVRIRDNIALQPNEYRLKIKGNEVAKGELLLDHYLAMSPTPEDDLIEGIETVEPSFGLPAKWISEAVKDEADMLGYTVVDPASVVSTHITEKIKQHAHELIGRQETKQLIDHLKESYPVLVEEVTPNPLSVGDIQKVLAKLLKEKVSIRNLVTIFETLADYGKLTTDSDLLTEYTRQALAKQITAQFAKENEVLKVVTCSGRVEKAIADGVQQTEHGNYLSLEPDISESIVRSVAKEAEQLSLRQETAILLCSPPVRMYVKQLLERYFPDLPVLSYNELEANVEVQSIGVVDI”, the “soluble on expression in E. coli” value is recorded as “soluble”. Consider “MVAQKAYVSTPTLIDYLSRSAIKLLDIHSILLKVREEAMGGEPNLLRQIDSTKKQLDEISHALILEYRKRQENERFLKQILLSISDQLFSLNNGFKETGRLFFQEIRMLQSQMQCFYEGKERQYLLSEQESSYSPSKIDEVIKQLQKAREKLIVESPHLFEKEC”, for which the “soluble on expression in E. coli” value was “not soluble”.

For the sequence “GTENLYFQGMSDVIEGRLKELGFTLPVAAAPAANYVPFTISGNLLYVSGQLPMESGKIAVTGLVGRDVDVASAQRAAELCAVNILAQVKAALNGDLSKIRRVIKLNGFVASVPEFVEQHLVINGASNLIATVLGEPGRHARAAVGMASLPFNASVEIDAIVEIDV”, the “soluble on expression in E. coli” value was “soluble”.

Take “MPLTSVTPLCITWNGEKLVAAGYDSTILTAVPKDIVKVKVNDRPIVFDVAPIIGEGRTLVPLRHIFEALGAEVKWDASTRTVTGIKGSDKIILKIDSKEALVNGETKELDVPATIVNGRTLVPVRSISESLGAEVSWDDNSKTVIIKTNF”: the “soluble on expression in E. coli” value was “not soluble”. The same measure for “ASLLARYPPEKLFQAERNFNAAQDLDVSLLEGDLVGVIKKKDPMGSQNRWLIDNGVTKGFVYSSFLKPYNPRRSHSDAS”: “soluble”; for “EKPANRQQTLEILAQHIEMDGVRQFLSKSLFKNEDHMAWRFNVDSLLSNYAEIIGWQDIAPTEIPTLFIKGGDSDYLMPEHQPSVQRQFKQAKAHIIANTGHWLHAEKPAEVMRVIRKYISS”: “not soluble”; for “MGSDKIHHHHHHMGSSGMGVDANGKPIKRQPTTNNNNKKAGNNSNNQKKGNNQNNKNNKNQNGGNRNQNRQHHQPPMMQMVPPFGPMGPGGPGGPGFMGPPNGNMNFFNGQNRRNGSGKDTMDHRLTMWDKELLEIT”: “not soluble”. Next, “MASKRALVILAKGAEEMETVIPVDVMRRAGIKVTVAGLAGKDPVQCSRDVVICPDASLEDAKKEGPYDVVVLPGGNLGAQNLSESAAVKEILKEQENRKGLIAAICAGPTALLAHEIGFGSKVTTHPLARDKMMNGGHYTYSENRVEKDGLILTSRGPGTSFEFALAIVEALNGKEVAAQVKAPLVLKDLEHHHHHH”: “soluble”; “MTPLSSPLSQYWQTVVERLPEGFTETSLSAQAKSVLTFSDFALDSVIAHPEWLAELESASPQADEWRHYAGWLQEALAGVCDDASLMRELRLFRRRIMVRIAWAQTLSLVDDETILQQLSHLAETLIVGARDWLYAACCREWGTPCNPQGVPQPLLILGMGKLGGGELNFSSDIDLIFAWPEHGETRGGRRELDNAQFFTRLGQRLIKALDQPTMDGFVYRVDMRLRPFGDSGPLVLSFAALEDYYQEQGRDWERYAMVKARLMGDNDDAWSRELRAMLRPFVFRRYIDFSVIQSLRNMKGMIAREVRRRGLKDNIKLGAGGIREIEFIVQVFQLIRGGREPSLQSRSLLPTLDAIAALHLLPENDVAQLRVAYLFLRRLENLLQSINDEQTQTLPADDLNRARLAWGMKAENWPQLVGELTDHMANVRRVFNELIGDDEADTPQEEERSEPWREVWQDALQEDDSTPVLAHLADEDRRQVLTLIADFRKELDKRPIGPRGRQVLDQLMPHLLADVCSREDAAVTLSRITPLLAGIVTRTTYLELLSEFPGALKHLIMLCAASPMIASQLARYPLLLDELLDPGTLYQPTATDAYRDELRQYLLRVPEEDEEQQLEALRQFKQAQLLRIAAADIAGTLPVMKVSDHLTWLAEAMIDAVVQQAWTQMVARYGQPAHLDERQGRGFAVVGYGKLGGWELGYSSDLDLIFLHDCPMDVMTNGEREIDGRQFYLRLAQRIMHLFSTRTSSGILYEVDARLRPSGAAGMLVTSADAFADYQQHEAWTWEHQALVRARVVYGDPQLTSQFDAVRRTIMTTARDGKTLQTEVREMREKMRAHLGNKHRDRFDIKADEGGITDIEFIAQYLVLRYAHEKPKLTRWSDNVRILELLAQNGIMDEHEAQALTVAYTTLRDELHHLALQELPGHVAQTCFSKERALVQASWRKWLVAV”: “soluble”; “MDGAQPKTNFFERLIARLAREPDSAEDVLNLLRQAHEQEVFDADTLLRLEKVLDFSDLEVRDAMITRSRMNVLKENDSIERITAYVIDTAHSRFPVIGEDKDEVLGILHAKDLLKYMFNPEQFHLKSILRPAVFVPEGKSLTALLKEFREQRNHMAIVIDEYGGTSGLVTFEDIIEQIVGEIEDEFDEDDSADNIHAVSSERWRIHAATEIEDINTFFGTEYSSEEADTIGGLVIQELGHLPVRGEKVLIGGLQFTVARADNRRLHTLMATRVK”: “not soluble”. Next, “MARALADLSVNLQVPRVVPSPDSDSDTDLEDPSPRRSAGGLHRSQVIHSGHFMVSSPHSDSLTRRRDQEGPVGLADFGPRSIDPTLTHLFECLSLAYSGKLVSPKWKNFKGLKLLCRDKIRLNNAIWRAWYIQYVQRRKSPVCGFVTPLQGSEADEHRKPEAVILEGNYWKRRIEVVMREYHKWRIYYKKRVSGTDTCRPWVLRVLEGIARPHPNPYL”: “soluble”; “MAETEILKCIGCGAPLQSEDLDAPGYVPESSLYKEDVICKRCFRLKNYNEVQDVGLDSEDFLNLLNGLADKKGIVVNVVDVFDFEGSFINAIKRIVGNKQIILVGNKLDLLPKQINKRRVKEWLKKTARKYGLDAEDVILISAEKNEGIEDLLNAINTLRNNDDVYIVGTTNVGKSTLINKLIERSVGEKNVVTTSRFPGTTLDMIDIPLDDTSFMYDTPGVIQEHQMTHYVTEKELKTIMPKKEVKQRVYQLNEGQTLFFGGLARIDYISGGKRPLVCYFSNDLNIHRTKTENANELWRNQLGDVLSPPNNPDHFDLQNVKAVRLETGKEKRDVMISGLGFITIDEGAKIIVRVPKNVDVVLRNSIMLEHHHHHH”: “not soluble”; “MSLYQEFFTFIPVDIEELDKAFGGGLIRGATISIMYDAFSLGWALGFEMVKNLIRRNSFGVIHNYNLPTIKLISRASFVGLNIQELAKRKEIMILDVFGSKYDVPPYADYVLQVPNPTPETLNPKIESVYENKIFQVAGDRRIVKLVYTLDGVATMFGEEVAIKLLNGELAWLAKMYGKRNVMTILLLNVDMVSKKFIAWTSGVSDIVITFQSLTEEREGELVERMTVIKSLNPEFEPTSYEFRVTATGTGSHALDFRKIENEGHHHHHH”: “not soluble”. As for “VSEEELKLILAGAEESGAIEPQEEEMIHSILELEETPVREIMTPRVEMVAIEDEATLEDLLALYREHRYSRVPVYRESVDHIVGVAYVQDLLTYYCEEDLKAFKVASIAHPPYFVPENMDAWSLLKELRRRKVHMAIVVDEFGGTAGLVTLEDVIEEIVGEI”, the “soluble on expression in E. coli” value was “not soluble”. Next, “MILLIDNYDSFVFNVKSMLEQLSNDEILVRRNDAISLSEIKNLNPTHIILSPGPKHPSQSGICLEIFKARLNIPVLGICLGHQALALAFDSLVVKMQEPMHAKNSLIKQCRENELFSNLPSNFSVMRYHSLEVKQLSDELEILALDEKGVIMALGHKNLPYYGVQFHPESYFSEYGLQLFSNFLKQDIKKPQKQENPLSFYLQKMSENHFLQSDDFEQICKIIMSKDYEILQVVALLILITEKSLNEKSLSAFVRQILRYSQTFSDESEMIDICGTGGDGFKSINVSTTSAFILAALGVKVAKHGNRAISSSSGSTDVLEALNITTPNTLESVLKQLNNQGLSFLHAPFFHPLVGELKEIRSRLGVRTVFNVLGPLLHPNLKLKYQLMGNYHAPVHRLLIEVLKNLGRKKALVVRGNDGMDELSICDESKIYELCEGEILEYSICPEQFGFKRAFHSEIIGSSAYDNAKDLKDILSGRMQGAKFDLVVLNAMFALYTANKASSPLVAKDMILEAIYSGKVIEYFKEYQAYAKA”: “not soluble”; “MGSDKIHHHHHHMLLGRTANGLYWMNRYIERAENMARLVDAGLRMALTRTQNASEEWNSVLLSAGSDVAFKQKYSDYTAADVADFLLRDTSNPSSTMSSIETARNNARMVRTALTRETWESINEAWMSLKRMLARPIDERDLPSVLDAIKRETALIRGSFYGTMLRNEIFDFSQLGTYVERADNTARILDVKYYVLLPSISWVGSTLDNYQWESILRSVSAHRSYRWVYDADYKPTNIADYLILNVRMPRSLTFCYRFLSEHLKFLSDDYGERHACHATAEKTQAMLRAGSIKDIFDAGLHEFLAGFIRDNTRLGDEIAQDYRFY”: “not soluble”; “SLIHIAIVEDENKDRELLKEYLDRFQAEKGEPLFVHVYPDGEEFLESFSSGKFDILLLDIHMQYMNGMATAQEIRKSDENVLIIFITNLVQYAVQGYSVRAFDFIVKPVEYSVFAQKLYRATQRLNRTIHSCVRFKVLDQIVNLQLSGILYFEIVARKLFIYTDTEIYRCNDTLHSIEEKLNDGHFFRCHAGYLVNVAYVRSVGKDYAMVGSARIPVSKHRRKAFLDAIGNYLGSKEG”: “not soluble”. Next, GCPRILIRCKQDSDCLAGCVCGPNGFCGSPA: “soluble”; “MQSDHKEKIAILVDVQNVYYTCREAYRSNFDYNQFWYVATQEKEVVSAKAYAIASNDPKQRQFHHILRGVGFEVMLKPYIQRRDGSAKGDWDVGITLDAIEIAPDVDRVILVSGDGDFSLLVERIQQRYNKKVTVYGVPRLTSQTLIDCADNFVAIDDDFLL”: “soluble”.

With “MTATNDKGLQQIATIIEQHQTLPGAMLPILHAIQNDLSFIPSNALPLIAKALNVSKAEVHGVISFYHHFRTEEPGAHVIEICRGESCQAMGSRALEENIKQNLSIDYHQTSKDRQYTLEPVYCLGNCACSPAMRIGDDIHGELDLQKFEQIIASLNTYSLELK”, the “soluble on expression in E. coli” value was “not soluble”. With “MGSDKIHHHHHHMDSWNMKGSKMVDVNEITKYLPGFNCGACGYKRCDLFAEALLNKDVKLEDCPFLLRERFKENYEKLKEILKIKGKIKKEEKYIGVIDGYEADFLLKPLPNECSCRETLLIMDKKELKVGDYIRYRPLGCPIPHFAKIIDEYHGFYIIHVVGPSHRITGEKIEYKDVGIAIVVAFEGIVEGKVPEVGKTVKFIPKHCMMQKVHSGVVVQVEGKRVYIEGIDLKVF”, the “soluble on expression in E. coli” value is listed as “not soluble”. The same measure for “FNKKEVLDLTSPKNSIRSRNKLRRTLRNIQERIEDELNHEREALIQDFDYRLAVTYDQMLKDSNIPFSVKDVMAFIEKHTGVRFG”: “soluble”.

For the origin of these results see the DeepSol protein solubility set.
